Measured values as given in US20090197797A1, “USE OF HYALURONIC ACID AS A CARRIER MOLECULE FOR DIFFERENT CLASSES OF THERAPEUTIC ACTIVE AGENTS” (priority 2006, published 2009).

Test: storage stability of HA-6-MTX checked by repeated NMR spectrum
Type: physicochemical
Settings: 3-months storage at room temperature; compared with freshly prepared product
Procedure: A solution of HA-OMs:TBA salt from Example 10 (500 mg; 0.73 mmol) in DMSO (15 ml) was treated with a solution of methotrexate (833 mg; 1.83 mmol) in DMSO (10 ml) in the presence of solid cesium carbonate (596 mg; 1.83 mmol). The mixture was stirred under nitrogen at 80° C. for 18 h, whereupon it darkened with formation of solids. It was then cooled to ambient temperature, poured into 100 ml of water (pH 6.5), treated with 15 ml of saturated NaCl solution, and stirred for 1.5 h. Then solids were filtered off and the solution was ultrafiltered, concentrated and freeze-dried to give 131 mg of a yellow-brownish solid. […] HPLC analysis gave 32% w/w, corresponding to 40% mol/mol.

6-O-Methotrexylhyaluronic Acid [Example 24]
NMR spectrum repeated on the same sample after storage (stability of substitution degree): the substitution degree is maintained and no by-products are formed
